pKd: −log10 of the molar value. Values belong to the substance of their own block, whether it stands above or below them.
Key:
Assay in all cases: MST
[1] = target: R663H human β-cardiac 25-hep HMM (UniProt P12883)
[2] = target: WT human β-cardiac 25-hep HMM (UniProt P12883)
[3] = target: C0-C7 fragment of human cardiac myosin binding protein-C (MyBP-C) (human)
[4] = target: R663H human β-cardiac short S1 (sS1) (human) (UniProt P12883)
[5] = target: WT human β-cardiac short S1 (sS1) (human) (UniProt P12883)

pKd [1]: 5.96
pKd [2]: 5.82
Substance: C0-C7 fragment of human cardiac myosin binding protein-C (MyBP-C) (domain or fragment)

pKd [3]: 5.96
Substance: WT human β-cardiac 25-hep HMM (from UniProt P12883 1-1016; P08590 1-195) (complex)

pKd [4]: 4.24
pKd [5]: 4.21
Substance: proximal S2 of human β-cardiac myosin (from UniProt P12883 1-1935) (domain or fragment)

From paper PMC7124958
